These results are taken from PMC10746542 (Nature chemical biology, 2023).

For test [1], the target named is bi-paratopic VH27.2/VH31 inhibitor (tetravalent Fc). The experiment in a line: flow cytometry on cells; MDA-MB-231 cells stained with a titration of binder, 1 hr at 4°C in PBS with 3% BSA; ProtA-647 secondary; EC50 from median fluorescence intensity, sigmoidal 4PL fit. The settings on record: one partner purified.
Test [2] has as its target VH27/T75I/A89V-Fc. Kind of test: BLI; biotinylated ENPP1-Fc antigen loaded on streptavidin biosensors, blocked with 5 uM biotin; binder in solution, 600 s association, 900 s dissociation; TBS, 0.02% TWEEN-20, 0.2% BSA, 200 uM zinc chloride, 2 mM calcium chloride, 75 mM sodium chloride; 1:1 monovalent binding model. The settings on record: both partners purified. Background: BLI is a label-free optical method that tracks binding on a fibre tip over time.

Test [3] deals with VH27.2-Fc Y102A. The description is as above. The settings on record: both partners purified.
The target of test [4] is VH27.2-Fc W104F. Described as above. The settings on record: both partners purified.

B1: native ENPP1 on the cell membrane (natural protein, UniProt P22413 1-925, looked up)
chain: MERDGCAGGGSRGGEGGRAPREGPAGNGRDRGRSHAAEAPGDPQAAASLLAPMDVGEEPLEKAARARTAKDPNTYKVLSLVLSVCVLTTILGCIFGLKPSCAKEVKSCKGRCFERTFGNCRCDAACVELGNCCLDYQETCIEPEHIWTCNKFRCGEKRLTRSLCACSDDCKDKGDCCINYSSVCQGEKSWVEEPCESINEPQCPAGFETPPTLLFSLDGFRAEYLHTWGGLLPVISKLKKCGTYTKNMRPVYPTKTFPNHYSIVTGLYPESHGIIDNKMYDPKMNASFSLKSKEKFNPEWYKGEPIWVTAKYQGLKSGTFFWPGSDVEINGIFPDIYKMYNGSVPFEERILAVLQWLQLPKDERPHFYTLYLEEPDSSGHSYGPVSSEVIKALQRVDGMVGMLMDGLKELNLHRCLNLILISDHGMEQGSCKKYIYLNKYLGDVKNIKVIYGPAARLRPSDVPDKYYSFNYEGIARNLSCREPNQHFKPYLKHFLPKRLHFAKSDRIEPLTFYLDPQWQLALNPSERKYCGSGFHGSDNVFSNMQALFVGYGPGFKHGIEADTFENIEVYNLMCDLLNLTPAPNNGTHGSLNHLLKNPVYTPKHPKEVHPLVQCPFTRNPRDNLGCSCNPSILPIEDFQTQFNLTVAEEKIIKHETLPYGRPRVLQKENTICLLSQHQFMSGYSQDILMPLWTSYTVDRNDSFSTEDFSNCLYQDFRIPLSPVHKCSFYKNNTKVSYGFLSPPQLNKNSSGIYSEALLTTNIVPMYQSFQVIWRYFHDTLLRKYAEERNGVNVVSGPVFDFDYDGRCDSLENLRQKRRVIRNQEILIPTHFFIVLTSCKDTSQTPLHCENLDTLAFILPHRTDNSESCVHGKHDSSWVEELLMLHRARITDVEHITGLSFYQQRKEPVSDILKLKTHLPTFSQED
As to B1, in test [1], the binding result is listed as “binds”.

B2: T256A ENPP1-Fc (human ENPP1 ectodomain, ΔSMB, T256A, C-terminal Fc fusion with AviTag, biotinylated) (Fc fusion)
chain: GEKSWVEEPCESINEPQCPAGFETPPTLLFSLDGFRAEYLHTWGGLLPVISKLKKCGTYTKNMRPVYPTKAFPNHYSIVTGLYPESHGIIDNKMYDPKMNASFSLKSKEKFNPEWYKGEPIWVTAKYQGLKSGTFFWPGSDVEINGIFPDIYKMYNGSVPFEERILAVLQWLQLPKDERPHFYTLYLEEPDSSGHSYGPVSSEVIKALQRVDGMVGMLMDGLKELNLHRCLNLILISDHGMEQGSCKKYIYLNKYLGDVKNIKVIYGPAARLRPSDVPDKYYSFNYEGIARNLSCREPNQHFKPYLKHFLPKRLHFAKSDRIEPLTFYLDPQWQLALNPSERKYCGSGFHGSDNVFSNMQALFVGYGPGFKHGIEADTFENIEVYNLMCDLLNLTPAPNNGTHGSLNHLLKNPVYTPKHPKEVHPLVQCPFTRNPRDNLGCSCNPSILPIEDFQTQFNLTVAEEKIIKHETLPYGRPRVLQKENTICLLSQHQFMSGYSQDILMPLWTSYTVDRNDSFSTEDFSNCLYQDFRIPLSPVHKCSFYKNNTKVSYGFLSPPQLNKNSSGIYSEALLTTNIVPMYQSFQVIWRYFHDTLLRKYAEERNGVNVVSGPVFDFDYDGRCDSLENLRQKRRVIRNQEILIPTHFFIVLTSCKDTSQTPLHCENLDTLAFILPHRTDNSESCVHGKHDSSWVEELLMLHRARITDVEHITGLSFYQQRKEPVSDILKLKTHLPTFSQED
modifications: biotin on the AviTag
With B2, the results for the Kd in test [2], in test [3] and in test [4] were 0.7 nM, 111 nM and 14.2 nM, respectively.

As usually defined, the Kd is a measure of binding affinity in units of concentration.
